The results in this text go back to US20060282909A1 (published 2006).

Data set [1] has as its target T1, NF-AT3 full length (NFATC4) (UniProt Q14934).
T1 sequence: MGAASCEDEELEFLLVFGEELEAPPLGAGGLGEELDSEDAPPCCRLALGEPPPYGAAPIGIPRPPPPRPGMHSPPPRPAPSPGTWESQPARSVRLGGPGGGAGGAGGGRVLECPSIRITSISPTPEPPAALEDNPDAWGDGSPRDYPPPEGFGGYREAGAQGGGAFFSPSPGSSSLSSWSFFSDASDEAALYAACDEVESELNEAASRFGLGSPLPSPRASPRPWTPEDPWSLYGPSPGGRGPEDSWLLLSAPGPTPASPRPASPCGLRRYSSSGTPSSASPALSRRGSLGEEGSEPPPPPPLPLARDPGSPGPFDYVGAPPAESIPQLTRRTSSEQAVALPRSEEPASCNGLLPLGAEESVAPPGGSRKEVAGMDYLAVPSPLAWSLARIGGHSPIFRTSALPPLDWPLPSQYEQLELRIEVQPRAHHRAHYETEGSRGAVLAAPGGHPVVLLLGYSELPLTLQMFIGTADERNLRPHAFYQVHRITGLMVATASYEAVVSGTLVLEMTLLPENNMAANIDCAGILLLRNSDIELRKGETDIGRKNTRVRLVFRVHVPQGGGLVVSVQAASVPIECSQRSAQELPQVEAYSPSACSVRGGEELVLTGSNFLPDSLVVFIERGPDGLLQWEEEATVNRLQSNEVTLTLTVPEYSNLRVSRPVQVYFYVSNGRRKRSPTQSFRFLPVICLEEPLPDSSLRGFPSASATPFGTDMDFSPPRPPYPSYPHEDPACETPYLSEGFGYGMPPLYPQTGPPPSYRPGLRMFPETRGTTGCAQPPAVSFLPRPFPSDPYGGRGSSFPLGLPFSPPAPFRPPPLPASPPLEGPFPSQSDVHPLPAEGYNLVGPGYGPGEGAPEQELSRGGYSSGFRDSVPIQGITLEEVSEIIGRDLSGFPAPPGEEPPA
The data set is described as follows: cell_activity. Particulars: CAT reporter activation with GATA4, NF-AT3 and activated calcineurin together in rat cardiomyocytes.

For data set [2], the target named is full-length GATA4 (UniProt Q08369 1-441, limits assumed). The experiment in a line: cell-based or functional assay.
full-length GATA4, sequence (Q08369 whole entry): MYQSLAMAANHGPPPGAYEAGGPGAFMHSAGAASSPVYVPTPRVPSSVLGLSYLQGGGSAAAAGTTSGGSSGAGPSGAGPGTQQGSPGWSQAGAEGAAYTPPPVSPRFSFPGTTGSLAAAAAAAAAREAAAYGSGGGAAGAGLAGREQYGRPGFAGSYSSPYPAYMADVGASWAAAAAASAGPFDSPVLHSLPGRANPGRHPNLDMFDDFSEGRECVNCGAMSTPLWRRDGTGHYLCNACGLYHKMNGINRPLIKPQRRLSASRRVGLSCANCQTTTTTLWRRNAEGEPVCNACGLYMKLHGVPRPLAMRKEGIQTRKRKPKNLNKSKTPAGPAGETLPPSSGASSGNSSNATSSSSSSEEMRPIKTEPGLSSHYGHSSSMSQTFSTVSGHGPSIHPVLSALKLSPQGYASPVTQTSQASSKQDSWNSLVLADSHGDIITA

On to BNP promoter 1800 bp, for which the activity in data set [1] is over 100 fold.

B1: full length NF-AT3 (other)
chain: T1 sequence
Regarding B1, the “activation of the BNP promoter (CAT reporter) in transfected neonatal rat cardiomyocytes” value in data set [2] is over 100 fold.
